Assay results from the supplement of paper PMC10567573.
± gives the standard deviation.

Experiment: protein stability index of a GFP-peptide fusion (GPS, HEK-293T) (PSI 1-6); higher = more stable
[1] = treatment: DMSO, c terminus: a fixed tail appended
[2] = treatment: MLN4924 1 uM, 8 h, c terminus: a fixed tail appended
[3] = treatment: DMSO, c terminus: native
[4] = treatment: MLN4924 1 uM, 8 h, c terminus: native
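Further: 24-mer peptide tiles fused after GFP, lentivirally expressed, FACS-sorted into six equal bins by GFP/DsRed ratio, decoded by Illumina sequencing, PSI is the read-weighted mean bin number.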

Row | Sequence | protein stability index [1] | protein stability index [2] | protein stability index [3] | protein stability index [4]
1 | GLANGLQLLCPWAPLSGPQALMLP [VENTX] | 2.01 ± 0.31 | 2.1 ± 0.36 |  | 
2 | PNLTYVYPHTRIQSLVSILRTTVH [CLCN6] | 2.38 ± 0.51 | 2.23 ± 0.17 |  | 
3 | VAALVVNFSQPVAGRPSLLRHDEV [NLN] | 2.46 ± 0.49 | 2.48 ± 0.36 |  | 
4 | FRQFGYQDSPGPHEALSRLWELCH [ZNF396] | 2.28 ± 0.28 | 2.31 ± 0.24 |  | 
5 | QRLVEALEENELTSLAEDLLGLTD [TRADD] | 4.28 ± 0.14 | 4.28 ± 0.17 |  | 
6 | DSKIVVPPLPGKALKRQLPFRGDE [SNX12] | 4.35 ± 0.21 | 4.36 ± 0.1 |  | 
7 | PDMSVTKVVVHKETEITPEDGED [EPB41L3] |  |  | 5.5 ± 0.35 | 5.57 ± 0.29
8 | YAHQMVRTDSREQKLDAFLQPLSK [MLH1] | 2.98 ± 0.3 | 3.35 ± 0.35 |  | 
9 | HCWDVAGAGIIVTEAGGVLMDVTG [IMPA1] | 2.4 ± 0.25 | 2.52 ± 0.51 |  | 
10 | CKSGYHPTKSHSFRAMCQNGKLVY [CFHR2] | 2.16 ± 0.18 | 2.38 ± 0.43 |  | 
11 | LERQLQAEFIESGQYRANEGTSSI [TAF7L] | 4.7 ± 0.2 | 4.66 ± 0.12 |  | 
12 | KESNANPIFMRKDTKMSFQWRIRN [DPCD] | 2.83 ± 0.15 | 3.01 ± 0.24 |  | 
13 | PQAFPMSRLWDSRLRHYLGSRYDA [DNAAF3] | 2.2 ± 0.47 | 2.51 ± 0.35 |  | 
14 | DANLDECIPATVRSSFANQGEICL [ALDH8A1] | 4.08 ± 0.35 | 4.19 ± 0.41 |  | 
15 | RNIHRHVILSEIKEAVAALPPDVT [TCF25] | 3.35 ± 0.084 | 3.62 ± 0.28 |  | 
16 | LSRENIQSSLLETLYRNRSNLETI [PPEF2] | 2.83 ± 0.39 | 2.64 ± 0.33 |  | 
17 | DKPLMPYMRYSRKVWDQVKASNPD [SMARCE1] | 3.27 ± 0.53 | 3.44 ± 0.17 |  | 
18 | GDSDSALDSVSPCPSSPKQIHLDV [DLC1] | 4.8 ± 0.37 | 4.66 ± 0.35 |  | 
19 | DPLSLLDDSKFPIEDTPLVPVSFI [PCDHGA10] | 2.85 ± 0.49 | 2.97 ± 0.3 |  | 
20 | SVLQSVWMEVLVLGVAQRSLPLQD [ESRRA] | 3.62 ± 0.79 | 3.38 ± 0.57 |  | 
21 | KIEIQTLTGLFKGDKCHSLVGKPK [CASP6] | 3.01 ± 0.12 | 3.15 ± 0.42 |  | 
22 | GIKTVIVNMVDVAKALNRPPTYPT [EIF5] | 2.32 ± 0.48 | 2.4 ± 0.59 |  | 
23 | NGVNVLDEPYEKVVDRIQSSGKNV [PDZK1] | 5.03 ± 0.3 |  |  | 

Row | Sequence | protein stability index [1] | protein stability index [2] | protein stability index [3] | protein stability index [4]
24 | SGVDECARQEGLTFFGTELAPVRQ [PBXIP1] | 4.13 ± 0.4 | 4.08 ± 0.35 |  | 
25 | LASRNPCPWHYLHLSGSHNTLAPT [RSPH3] | 2.41 ± 0.14 | 2.45 ± 0.16 |  | 
26 | ELEKIGSGEFGSVFKCVKRLDGCI [WEE1] | 2.29 ± 0.25 | 2.35 ± 0.24 |  | 
27 | HKLQEEKAFREEMKIFREKIEDFR [CCDC70] | 3.38 ± 0.3 | 3.61 ± 0.31 |  | 
28 | KVEQNSRPVSCSGRDALLDQIRQG [WASL] | 4 ± 0.16 | 3.96 ± 0.081 |  | 
29 | LELLGATYVDKKRDLLGALKHWRR [FEM1A] | 2.48 ± 0.11 | 2.62 ± 0.3 |  | 
30 | EELEFQYRRVNELLLSILNPTRQD [ZER1] | 3.01 ± 0.26 | 3.04 ± 0.31 |  | 
31 | RRPHELLPVGGRLPGPTRPVLGRR [HAGHL] | 4.67 ± 0.16 | 4.92 ± 0.4 |  | 
32 | FAYLEDLHSEFDEQHGKKVPTVSR [SEC22B] | 3.64 ± 0.24 | 3.73 ± 0.33 |  | 
33 | IAGGLAGMGGIQNEKETMQSLNDR [KRT18] | 4.83 ± 0.24 | 4.81 ± 0.33 |  | 
34 | SPAEDFVLVAETTMARIRRVYVSG [APMAP] | 2.22 ± 0.29 | 2.05 ± 0.42 |  | 
35 | RHNALLSKRLLALTSSDLGCQPSR [TMEM192] | 2.97 ± 0.13 | 3.14 ± 0.38 |  | 
36 | MPCTWVMACAYAPSGCAIACGGLD [GNB5] | 2.77 ± 0.53 | 2.88 ± 0.4 |  | 
37 | GAGEGAAASPELSALEEAFRRFAV [TPPP] | 3.58 ± 0.58 | 3.74 ± 0.44 |  | 
38 | LSWFILHARYRVIHFIAVAVCLLG [SLC35F2] | 2.49 ± 0.12 | 2.83 ± 0.91 |  | 
39 | FEDPRDAEDAVYGRDGYDYDGYRL [SRSF1] | 4.73 ± 0.18 | 4.8 ± 0.14 |  | 
40 | NLLQPNFEAAFGTTPSTSSSSSFD [SNAP91] | 4.11 ± 0.093 | 4.08 ± 0.046 |  | 
41 | TAEDAELSDFEECEETGELFEEPA [FCHSD1] | 5.58 ± 0.24 | 5.5 ± 0.28 |  | 
42 | SFMMGQGGEAAHHTRSPYSTFYPP [NEUROD6] | 2.66 ± 0.39 | 2.84 ± 0.25 |  | 
43 | YKPVVLLQGLSLIVTWFMLLYAQG [SLC19A2] | 2.94 ± 0.42 | 3.02 ± 0.29 |  | 
44 | LSAVPEEGDATRDPGPEPEEEPGV [PSD2] | 5.77 ± 0.25 | 5.48 ± 0.49 |  | 
45 | LKLARKAYHDPMLKLSIMSEEELT [NET1] | 3.06 ± 0.2 | 3.14 ± 0.21 |  | 
46 | ILSKVQKNHVGKPLLKMDLNSEQA [FAM98B] | 3.62 ± 0.31 | 3.46 ± 0.47 |  | 

Row | Sequence | protein stability index [1] | protein stability index [2] | protein stability index [3] | protein stability index [4]
47 | VNYTQGLWEKVMPSRYAAIYNGGV [SLC19A2] | 2.33 ± 0.18 | 2.21 ± 0.47 |  | 
48 | SETPKSQVGTLLFRSRSRLTHLSL [CDC25B] | 2.43 ± 0.12 | 2.53 ± 0.3 |  | 
49 | SEVESAVWYVKKFGRYLEHLEVKF [FBXO39] | 2.44 ± 0.22 | 2.47 ± 0.43 |  | 
50 | FQAHRDKYEKLRGDVAIKLKFLEE [ARFIP2] | 2.89 ± 0.45 | 3.15 ± 0.25 |  | 
51 | VLGGNLQGGELVVAYPYDLVRSPW [CPXM2] | 2.13 ± 0.12 | 2.48 ± 0.48 |  | 
52 | RFELINIDDLEDDPVVNGERSGCA [TCF25] | 4.69 ± 0.26 | 4.68 ± 0.26 |  | 
53 | LDTGTNYDYVREFKRSTGTWHHTK [GAN] | 3.34 ± 0.11 | 3.42 ± 0.25 |  | 
54 | VASAPLQPPVPSLSEVKPPPPPPP [TRADD] | 5.02 ± 0.15 | 4.71 ± 0.34 |  | 
55 | GIEHAQCVPPSEFSEPSFITESYQ [ETS1] | 4.44 ± 0.12 | 4.15 ± 0.3 |  | 
56 | PLYLLTWKIAPAMAAGNTVIAKPS [ALDH8A1] | 2.04 ± 0.52 | 2.11 ± 0.4 |  | 
57 | GLETLFSKAQELGGAGREDPGLWS [ZSWIM9] | 3.18 ± 0.5 | 3.39 ± 0.23 |  | 
58 | DKERAVLLQRRKRENMSDGDTSAT [KMT2E] | 5.27 ± 0.062 | 5.39 ± 0.19 |  | 
59 | LPLPPPPPEPLSQVSMWDQRWQDH [APBB1IP] | 3.19 ± 0.78 | 3.54 ± 0.57 |  | 
60 | ILNFNDLMSSAVPMTPEDPSFWDC [AASDHPPT] | 2.71 ± 0.31 | 2.92 ± 0.2 |  | 
61 | PEGIQKVAKCLIGVNYPKPMVNHA [CRY1] | 2.46 ± 0.18 | 2.87 ± 0.23 |  | 
62 | RELTGLKALYETELADARRALDDT [LMNB1] | 4.76 ± 0.31 | 4.77 ± 0.094 |  | 
63 | IKWLKEAEEESSGGEEEDEDENIE [EIF5] | 5.41 ± 0.14 | 5.49 ± 0.25 |  | 
64 | RLVGKTPIETLIRDMLLSGSSFNW [NR2F2] | 3.25 ± 0.84 | 1.87 ± 0.54 |  | 
65 | RVRPTFQEITSETEDLCEKPDDEV [RIPK4] | 5.57 ± 0.17 | 5.49 ± 0.56 |  | 
66 | RRHCPLPQATFWGLVTPRSWSCHT [SOAT2] | 2.46 ± 0.4 | 2.25 ± 0.17 |  | 
67 | NIQIIEYEKKQTLGQNDTGFSCDG [BTBD1] | 4.36 ± 0.4 | 4.034 ± 0.016 |  | 
68 | LEGEDAHLSSQQASGQSYSSREVF [KRT16] | 5.04 ± 0.15 | 5.02 ± 0.1 |  | 
69 | LSAALASSQKQHSFTSSDKTIKSF [C8orf76] | 3.77 ± 0.35 | 3.74 ± 0.2 |  | 

Row | Sequence | protein stability index [1] | protein stability index [2] | protein stability index [3] | protein stability index [4]
70 | GPRFLAYFGSFATVGLLWFAHHSL [TMEM175] | 3.17 ± 0.2 | 3 ± 0.27 |  | 
71 | SIQKLSNESRYMIYEFWENSSVWN [NECAB1] | 2.15 ± 0.45 | 2.01 ± 0.3 |  | 
72 | SHLQTNYSKTFQRSNVDFLETPEL [NECAB1] | 3.47 ± 0.23 | 3.62 ± 0.57 |  | 
73 | MIIEHKIVIADVKLVADFQRYILY [ZNF277] | 3.58 ± 0.73 | 2.74 ± 1.1 |  | 
74 | GLLDLNNAILQLVKKYKSMKLEKE [ESRRG] | 2.65 ± 0.14 | 2.9 ± 0.82 |  | 
75 | PSVFDGLGDLLMPTMAPAGQPAPV [SNAP91] | 3.54 ± 0.25 | 3.57 ± 0.2 |  | 
76 | NLANCERLIEVEDMMVMGRKPDPM [SMTNL2] | 3.36 ± 0.25 | 3.48 ± 0.31 |  | 
77 | MEREFNNLLALGTDRKLDDGDDKV [PPFIA4] | 5.47 ± 0.32 | 5.34 ± 0.58 |  | 
78 | YARQHCPLKNPTFLDYVRPRSWTC [SOAT1] | 2.12 ± 0.46 | 2.14 ± 0.53 |  | 
79 | NSQVHRETEDVDYGETDFHKQDGK [TMEM40] | 5.54 ± 0.12 | 5.52 ± 0.17 |  | 
80 | LESPIDPQPLSFKEPPLLLGVLHP [APMAP] | 3.43 ± 0.31 | 3.69 ± 0.24 |  | 
81 | AGINTHSNEFKESALTLACYKGHL [ANKRD17] | 2.76 ± 0.19 | 2.86 ± 0.47 |  | 
82 | SSPGNNNGTSIEDGQIPEIIFYT [BTBD1] |  |  | 3.14 ± 0.46 | 3.44 ± 0.56
83 | IDNANRILGPAYFVTYVFFVFFVL [PKD2L1] | 2.67 ± 0.71 | 2.67 ± 0.6 |  | 
84 | LCVNYFFYGETVADYFATFVQREE [CDS1] | 3.4 ± 0.68 | 2.61 ± 0.99 |  | 
85 | AEDFSTMDEISEKLKKGICEALED [MATN2] | 5.22 ± 0.32 | 5 ± 0.33 |  | 
86 | AIHSSDEDEDEDDEEDFEDDDEWE [WASL] | 4.48 ± 0.26 | 4.49 ± 0.27 |  | 
87 | NQLQYMQNVVVKTLWKHQFAWPFY [BRD3] | 3.03 ± 0.46 | 2.64 ± 0.36 |  | 
88 | KGYLFHTVAGKHQDLKYISPEIMA [CDC25A] | 2.32 ± 0.34 | 2.43 ± 0.23 |  | 
89 | VDTLTFQSQSLRDRARRFEEALRK [MTUS2] | 4.08 ± 0.2 | 4.14 ± 0.22 |  | 
